{"source": "patent US20250215097A1", "about": "(BEIJING TIANNUOJIANCHENG PHARMA TECH, published 2025)", "binders": {"B1": {"name": "h87D8 H2K4 hIgG1 e5 (antibody)", "heavy": "not shown", "light": "DIVMTQSPLSLPVTPGEPASISCRSSKSLLHSNYNTYLYWFLQKPGQSPQLLIYRTSNLASGVPDRFSGSGSGTDFTLKISRVEAEDVGVYYCMQHLEYPLTFGQGTKLEIKRTVAAPSVFIFPPSDEQLKSGTASVVCLLNNFYPREAKVQWKVDNALQSGNSQESVTEQDSKDSTYSLSSTLTLSKADYEKHKVYACEVTHQGLSSPVTKSFNRGEC", "notes": "also called h87D8 H2K4 e5; h87D8H2K4e5; copies: 2 + 2"}}, "key": {"human CCR8 [1]": {"target": "T1, human CCR8 (human, UniProt P51685 1-355)", "T1 sequence (P51685 whole entry)": "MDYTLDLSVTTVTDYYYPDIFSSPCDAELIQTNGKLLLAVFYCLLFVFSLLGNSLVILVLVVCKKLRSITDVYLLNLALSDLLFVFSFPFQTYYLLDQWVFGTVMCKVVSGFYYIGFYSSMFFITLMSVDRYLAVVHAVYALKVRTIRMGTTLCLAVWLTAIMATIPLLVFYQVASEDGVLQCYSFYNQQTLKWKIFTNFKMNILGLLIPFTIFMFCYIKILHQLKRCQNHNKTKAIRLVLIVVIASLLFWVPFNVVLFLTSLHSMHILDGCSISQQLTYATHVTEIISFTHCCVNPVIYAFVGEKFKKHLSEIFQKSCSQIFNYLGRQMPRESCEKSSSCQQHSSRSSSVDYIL", "test": "cell-based or functional assay"}, "human CCR8 [2]": {"target": "T1, human CCR8", "test": "cell-based or functional assay", "remark": "listed apart in the source"}, "rabbit CCR8": {"target": "T2, rabbit CCR8 (rabbit)", "T2 construct": "Transiently expressed on HEK293 cells; also called HEK293-rabbit CCR8 cells; rabbit CCR8+ cells", "T2 chain": "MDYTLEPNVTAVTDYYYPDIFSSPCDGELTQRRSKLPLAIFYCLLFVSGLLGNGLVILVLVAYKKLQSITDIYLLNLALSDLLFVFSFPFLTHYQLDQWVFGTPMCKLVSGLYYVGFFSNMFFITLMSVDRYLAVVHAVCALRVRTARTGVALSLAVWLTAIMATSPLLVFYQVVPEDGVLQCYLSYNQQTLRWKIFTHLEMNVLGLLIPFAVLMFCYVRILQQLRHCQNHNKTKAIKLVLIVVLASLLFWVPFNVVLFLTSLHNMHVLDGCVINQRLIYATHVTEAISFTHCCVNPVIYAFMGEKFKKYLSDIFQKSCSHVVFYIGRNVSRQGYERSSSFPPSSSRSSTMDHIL", "test": "flow cytometry on HEK293-rabbit CCR8 cells", "description": "A lentiviral vector plasmid containing rabbit CCR8 was constructed by using a rabbit CCR8 cDNA (biosynthesized by GENEWIZ, Suzhou and having the amino acid sequence shown in SEQ ID NO. 112) as a template. The lentiviral vector plasmid containing rabbit CCR8 was transfected into HEK293 cells (hereinafter referred to HEK293-rabbit CCR8 cells) by using PEI MAX® (Polysciences 9002-98-6) as a transfection reagent referring to instructions of a transfection reagent. 24 hours after the transfection, 5×10⁴ HEK293-rabbit CCR8 cells were added per well in a 96-well U-shaped plate and centrifuged to discard the supernatant. 100 μL of a gradiently diluted h87D8 H2K4 e5 or anti-KLH isotype control antibody was added per well and the mixture was incubated on ice for 60 minutes. After the unbound primary antibody was washed away, 50 μL of a secondary antibody AlexaFluro647 anti-human IgG (Jackson Immuno Research #109-606-170) was added per well and the mixture was incubated on ice for 30 minutes. After the washing. […] Then excess secondary antibody was washed away with 0.5% BSA, the cells were resuspended by adding a PBS solution, and binding of the antibody to the cells was detected using a flow cytometer (Intellicyte iQue). The fluorescence value of a PI-negative cell population was analyzed. […]"}, "FcγRIIIAF158": {"target": "T3, FcγRIIIAF158 (UniProt P08637 17-208)", "T3 construct": "F158 allotype; also called FcγRIIIA158F", "T3 sequence (P08637 17-208 limits assumed)": "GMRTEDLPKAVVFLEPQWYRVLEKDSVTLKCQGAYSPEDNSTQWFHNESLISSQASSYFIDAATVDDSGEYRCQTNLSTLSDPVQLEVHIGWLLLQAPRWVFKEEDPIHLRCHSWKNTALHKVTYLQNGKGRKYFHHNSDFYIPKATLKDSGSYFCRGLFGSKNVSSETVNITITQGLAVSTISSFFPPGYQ", "test": "SPR (Biacore T200), antibody captured by anti-human IgG F(ab')2 on CM5, FcγRIIIA as analyte; FcγRIIIAF158", "description": "(§1) The affinities of the Fc function-enhanced humanized CCR8 antibodies to FcγRIIIAV158 and FcγRIIIAF158 were detected by using a surface plasmon resonance technology (SPR/Biacore T200). A coupling reagent Amine Coupling Kit (GE Healthcare BR-1000-50) was used to couple Goat Anti-Human IgG F(ab′)2 to the surface of a CM5 chip. h87D8 H2K4 e5 or h87D8 H2K4 was captured through high-affinity binding with the antibodies and then gradiently diluted FcγRIIIAV158 or FcγRIIIAF158 was injected in sequence. The binding time was set to be 120 seconds, the dissociation time was set to be 200 seconds, regeneration was performed for 30 seconds by 10 mM Glycine-HCl with the pH value of 1.75, and the flow rate was set to be […]. The measured data were fitted to obtain an equilibrium dissociation constant. The affinities of h87D8 H2K4 e5 or h87D8 H2K4 to FcγRIIIAV158 and FcγRIIIAF158 were respectively measured. […] The binding of h87D8 H2K4 e5 to FcγRIIIAV158 and FcγRIIIAF158 was stronger than that of h87D8 H2K4."}, "FcγRIIIAV158": {"target": "T4, FcγRIIIAV158 (UniProt P08637 17-208)", "T4 construct": "V158 allotype; also called FcγRIIIA158V", "T4 sequence (P08637 17-208 F176V limits assumed)": "as the sequence (P08637 17-208 limits assumed) above, with F160V counted along it", "test": "SPR (Biacore T200), antibody captured by anti-human IgG F(ab')2 on CM5, FcγRIIIA as analyte; FcγRIIIAV158", "description": "as §1"}}}
{"binder": "B1", "values": [{"measurement": "ADCC half-maximal effective concentration EC50, NK92-CD16A effectors, HuT78 targets", "setting": "human CCR8 [1]", "result": 0.53, "unit": "nM"}, {"measurement": "ADCC maximal lysis rate, NK92-CD16A effectors, HEK293-hCCR8 targets", "setting": "human CCR8 [1]", "result": 61, "unit": "%"}, {"measurement": "half-maximal effective concentration EC50 of inhibition of the Ca2+ current signal, CHO-hCCR8 cells, CCL1 stimulus", "setting": "human CCR8 [1]", "result": 5.2, "unit": "nM"}, {"measurement": "ADCC EC50 (nM), PBMC FcγRIIIA158F/F effectors, HEK293-hCCR8 targets", "setting": "human CCR8 [2]", "result": 0.02, "unit": "nM"}, {"measurement": "ADCC EC50 (nM), PBMC FcγRIIIA158V/V effectors, HEK293-hCCR8 targets", "setting": "human CCR8 [2]", "result": 0.01, "unit": "nM"}, {"measurement": "ADCC maximal lysis rate, PBMC FcγRIIIA158F/F effectors, HEK293-hCCR8 targets", "setting": "human CCR8 [2]", "result": 77, "unit": "%"}, {"measurement": "ADCC maximal lysis rate, PBMC FcγRIIIA158V/V effectors, HEK293-hCCR8 targets", "setting": "human CCR8 [2]", "result": 75, "unit": "%"}, {"measurement": "EC50", "setting": "rabbit CCR8", "result": 0.21, "unit": "nM"}, {"measurement": "Kd", "setting": "FcγRIIIAF158", "result": 433, "unit": "nM"}, {"measurement": "Kd", "setting": "FcγRIIIAV158", "result": 270, "unit": "nM"}]}
